In the supplement of paper PMC10567573:

B1: FAM164A (parent)
chain: YDPDYIQCPYCQRRFNENAADRHI

Variants of: B1
Assay: protein stability index of a GFP-peptide fusion (GPS, HEK-293T) (PSI 1-6); higher = more stable
Conditions: c terminus: a fixed tail appended
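Note: lentivirally expressed fusions sorted by FACS into six bins by GFP to DsRed ratio, PSI derived from sequencing read proportions per bin multiplied by bin number.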

Variant | protein stability index
YDPDYIQCPYCQRRFNENAVDRHI | 4.36
YDPDYIQCPYCQRRFNENAKDRHI | 3.76
YDPDYIQCPYCQRRFNENAWDRHI | 3.52
YDPDYIQCPYCQRRFNENAPDRHI | 3.52
YDPDYIQCPYCQRRFNENANDRHI | 4.49
YDPDYIQCPYCQRRFNENAGDRHI | 3.85
YDPDYIQCPYCQRRFNENADDRHI | 4.25
YDPDYIQCPYCQRRFNENAMDRHI | 4.12
YDPDYIQCPYCQRRFNENACDRHI | 4.44
YDPDYIQCPYCQRRFNENASDRHI | 4
YDPDYIQCPYCQRRFNENAFDRHI | 3.87
YDPDYIQCPYCQRRFNENAYDRHI | 3.78
YDPDYIQCPYCQRRFNENAIDRHI | 4.37
YDPDYIQCPYCQRRFNENAQDRHI | 3.82
YDPDYIQCPYCQRRFNENALDRHI | 4.25
YDPDYIQCPYCQRRFNENAEDRHI | 4.34
YDPDYIQCPYCQRRFNENAHDRHI | 3.95
YDPDYIQCPYCQRRFNENARDRHI | 4.24
YDPDYIQCPYCQRRFNENATDRHI | 3.93
YDPDYIQCPYCQRRFNYNAADRHI | 4.68
YDPDYIQCPYCQRRFNGNAADRHI | 4.5
YDPDYIQCPYCQRRFNANAADRHI | 5.13
YDPDYIQCPYCQRRFNMNAADRHI | 5.01
YDPDYIQCPYCQRRFNFNAADRHI | 5.14

Variant | protein stability index
YDPDYIQCPYCQRRFNINAADRHI | 5.23
YDPDYIQCPYCQRRFNWNAADRHI | 4.77
YDPDYIQCPYCQRRFNPNAADRHI | 5.37
YDPDYIQCPYCQRRFNVNAADRHI | 5.04
YDPDYIQCPYCQRRFNRNAADRHI | 4.89
YDPDYIQCPYCQRRFNHNAADRHI | 4.97
YDPDYIQCPYCQRRFNQNAADRHI | 4.94
YDPDYIQCPYCQRRFNNNAADRHI | 5.01
YDPDYIQCPYCQRRFNLNAADRHI | 5.16
YDPDYIQCPYCQRRFNTNAADRHI | 4.91
YDPDYIQCPYCQRRFNDNAADRHI | 4.37
YDPDYIQCPYCQRRFNSNAADRHI | 4.69
YDPDYIQCPYCQRRFNKNAADRHI | 5.07
YDPDYIQCPYCQRRFNCNAADRHI | 5.13
YDPDYIQCPYCQRRFNEEAADRHI | 4.26
YDPDYIQCPYCQRRFNEWAADRHI | 3.4
YDPDYIQCPYCQRRFNEVAADRHI | 3.86
YDPDYIQCPYCQRRFNEIAADRHI | 3.36
YDPDYIQCPYCQRRFNEKAADRHI | 4.11
YDPDYIQCPYCQRRFNEPAADRHI | 3.91
YDPDYIQCPYCQRRFNERAADRHI | 3.71
YDPDYIQCPYCQRRFNEAAADRHI | 4.22
YDPDYIQCPYCQRRFNEHAADRHI | 4.37
YDPDYIQCPYCQRRFNESAADRHI | 4.28

Variant | protein stability index
YDPDYIQCPYCQRRFNEQAADRHI | 4.76
YDPDYIQCPYCQRRFNEFAADRHI | 3.22
YDPDYIQCPYCQRRFNEGAADRHI | 3.92
YDPDYIQCPYCQRRFNEMAADRHI | 3.48
YDPDYIQCPYCQRRFNELAADRHI | 3.93
YDPDYIQCPYCQRRFNEDAADRHI | 4.5
YDPDYIQCPYCQRRFNEYAADRHI | 3.72
YDPDYIQCPYCQRRFNECAADRHI | 4.15
YDPDYIQCPYCQRRFNETAADRHI | 4.11
YDPDYIQCPYCQRRFNENAAHRHI | 3.93
YDPDYIQCPYCQRRFNENAANRHI | 4.72
YDPDYIQCPYCQRRFNENAAGRHI | 3.9
YDPDYIQCPYCQRRFNENAAERHI | 4.42
YDPDYIQCPYCQRRFNENAAARHI | 4.33
YDPDYIQCPYCQRRFNENAALRHI | 4.55
YDPDYIQCPYCQRRFNENAAFRHI | 3.72
YDPDYIQCPYCQRRFNENAAIRHI | 4.63
YDPDYIQCPYCQRRFNENAAVRHI | 4.25
YDPDYIQCPYCQRRFNENAAPRHI | 3.92
YDPDYIQCPYCQRRFNENAACRHI | 4.8
YDPDYIQCPYCQRRFNENAARRHI | 4.07
YDPDYIQCPYCQRRFNENAAYRHI | 4.03
YDPDYIQCPYCQRRFNENAAMRHI | 3.94
YDPDYIQCPYCQRRFNENAASRHI | 4.57

Variant | protein stability index
YDPDYIQCPYCQRRFNENAATRHI | 4.21
YDPDYIQCPYCQRRFNENAAWRHI | 3.51
YDPDYIQCPYCQRRFNENAAQRHI | 4.71
YDPDYIQCPYCQRRFNENAAKRHI | 4.46
YDPDYIQCPYCQRRFNENWADRHI | 3.66
YDPDYIQCPYCQRRFNENSADRHI | 4.59
YDPDYIQCPYCQRRFNENDADRHI | 4.47
YDPDYIQCPYCQRRFNENTADRHI | 4.51
YDPDYIQCPYCQRRFNENMADRHI | 3.88
YDPDYIQCPYCQRRFNENVADRHI | 3.82
YDPDYIQCPYCQRRFNENFADRHI | 4.24
YDPDYIQCPYCQRRFNENEADRHI | 4.61
YDPDYIQCPYCQRRFNENPADRHI | 4.03
YDPDYIQCPYCQRRFNENKADRHI | 4
YDPDYIQCPYCQRRFNENIADRHI | 4.02
YDPDYIQCPYCQRRFNENHADRHI | 4.12
YDPDYIQCPYCQRRFNENQADRHI | 4.37
YDPDYIQCPYCQRRFNENNADRHI | 4.37
YDPDYIQCPYCQRRFNENRADRHI | 4.11
YDPDYIQCPYCQRRFNENLADRHI | 4.03
YDPDYIQCPYCQRRFNENYADRHI | 3.58
YDPDYIQCPYCQRRFNENCADRHI | 4.42
